Experimental findings from the supplement of paper PMC12042874 are described below.

± gives the uncertainty stated by the source.

The series is described as follows: amyloid nucleation score (Sup35N fusion, yeast selection) (log enrichment); library NNK2; higher = more nucleation; inactive = no reads after selection. The gist of the method: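 The nucleation score is a DiMSum log enrichment of output over input reads, centred on the mode score of non-aggregating sequences. Sequences under 100 input reads were excluded, and reads came from Illumina sequencing of plasmid inserts. Psi-negative yeast expressing Sup35N fused to peptides of 20 random codons were induced with 100 μM copper sulfate for 24 hours and grown 7 days at 30°C on medium lacking adenine and uracil. Random libraries had three technical output replicates.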
For WGTDISYMGRSGCTLSGCIY, the amyloid nucleation score is -1.13 ± 0.55.
In the case of FKSQIDSECMFYLLG, the amyloid nucleation score was -0.018 ± 0.17.
Regarding GWLHMYY, the amyloid nucleation score was -0.268 ± 0.36.
The same measure for EIHYMCELIMQWVYSGLTSR: 0.607 ± 0.35.
On to GFIGNCYSFASLFGPMSHYV, for which the amyloid nucleation score was -0.588 ± 1.1.
For VFEVDLFWRSKFNSCLLPFR, the amyloid nucleation score was -0.95 ± 0.36.
Turning to FLIINYRSCRGINFIYARFY, the amyloid nucleation score result was “inactive”.
Consider MMWLGFYSCKGIGW, for which the amyloid nucleation score was found to be 3.991 ± 0.039.
As to AMYEH, the amyloid nucleation score is 0.518 ± 0.46.
RLSAHPVAAVLWG came in with an amyloid nucleation score of 1.49 ± 0.36.
As for NNVPCRSIADVYALEFLYAS, the amyloid nucleation score result is “inactive”.
Then GKSSHG, with 0.93 ± 0.32.
For CKENFKIFFDFYYGMTSVLS, the amyloid nucleation score entry was “inactive”.
As to DYGWKLMVKVDWFLNGHQ, the amyloid nucleation score came out at 4.39 ± 0.048.
Regarding ISRRHGFIILLGNDIRRVDY, the amyloid nucleation score was found to be 0.554 ± 0.81.
Substance LFQLGASTR gave an amyloid nucleation score of 0.147 ± 0.76.
With AVMTRFEDVYDCAVSTCKMG, the amyloid nucleation score was -0.363 ± 1.
For ICLVRWDMKSRVDGTSGM, the amyloid nucleation score was 5.194 ± 0.037.
Consider GDTCELCSVCQVNGV, for which the amyloid nucleation score stood at 1.15 ± 0.17.
In turn, GRHQVIGMWCSRLFPLVRRS came in with an amyloid nucleation score of 0.375 ± 0.56.
APPLTLELQYGWPLQRPLTK came in with an amyloid nucleation score of 0.275 ± 0.33.
As for DSTFKYYRTYLKERR, the amyloid nucleation score is -0.357 ± 0.41.
NGLQRLITNSKFPTRWTWFG showed an amyloid nucleation score of 0.206 ± 0.33.
On to NSRNSSYKWFSSSFVHVADF, for which the amyloid nucleation score is 1.71 ± 0.088.
The substance YTSSRGHYSIMGVIRMCDRL came in with an amyloid nucleation score of 0.118 ± 0.25.
The same measure for SCMCMEICINWNFRCIDGRG: 6.66 ± 0.078.
Take DVAIRVYYMYMYERYVTRLF: the amyloid nucleation score result is “inactive”.
Take NLVTFVWKRYLINIISVTKD: the amyloid nucleation score is -1.51 ± 1.1.
Take LCFSVNLARNLWLDNWVGGR: the amyloid nucleation score was found to be 6.12 ± 0.084.
Turning to CPLNLPTLGRLATEKRAWG, the amyloid nucleation score is -0.177 ± 0.79.
In turn, LNNLLS had an amyloid nucleation score of 0.315 ± 0.46.
For the substance FVFLFMRLKDGFYATIYISH, the amyloid nucleation score result is “inactive”.
The substance IFRSSTLIDLKDLGLTSH gave an amyloid nucleation score of 1.27 ± 0.096.
TLGLLDHWSLREWDTTGWVE gave an amyloid nucleation score of 0.691 ± 0.37.
Substance ERYIRF came in with an amyloid nucleation score of 0.187 ± 0.32.
As to NMSLHRAILGFKAATIMRSL, the amyloid nucleation score is -0.821 ± 1.1.
SRSVIFSGESSHHADWFWTV registered an amyloid nucleation score of 1.16 ± 0.68.
As to NDVNDLMGCTNQRGMYPQII, the amyloid nucleation score entry was “inactive”.
On to YSMRWFVGGFILGYCVCGQV, for which the amyloid nucleation score was 6.256 ± 0.037.
With LIGYI, the amyloid nucleation score is 1.96 ± 0.11.
For the substance TMRYMVQMLRFEQSGLGQWV, the amyloid nucleation score is 4.19 ± 0.076.
Regarding LGPLVMVFCVRIPYTTMVAW, the amyloid nucleation score was -1.25 ± 0.45.
Regarding PSYMFITVLYLQTEFGFDDT, the amyloid nucleation score was 3.82 ± 0.074.
As to YVVVINSEQNVETFKGFL, the amyloid nucleation score entry was “inactive”.
RDIFILSLLDRMSEGTKRIR gave an amyloid nucleation score of 3.86 ± 0.076.
Consider SSTFPPF, for which the amyloid nucleation score was -0.691 ± 0.41.
Regarding IWYLLFMVDLVKCHTMKTNR, the amyloid nucleation score came to 0.686 ± 0.12.
As to YPSLNDACQP, the amyloid nucleation score is -0.394 ± 1.1.
The same measure for VVSILRLDSVGRVVIEAWVR: 0.223 ± 0.77; for SESYVLYNIFGFSVKLDEHG: -1 ± 1.
In turn, WFKVH returned an amyloid nucleation score of 0.26 ± 0.8.
In turn, VYMKKINSFITMMSVHGNCS displayed an amyloid nucleation score of 5.11 ± 0.068.
Then NKMEDHGMWDLIAYRGVIPL, with -0.269 ± 0.22; and FMQICNFIC, with 8.012 ± 0.07; and SLGNVHRLL, with -0.246 ± 0.79.
The same measure for GQLNLGCWSYRGSRFWTWLR: “inactive”; for VLNGRTEWTKQVDFIYFITD: -0.464 ± 1.1; for PRRVDRW: 0.339 ± 0.2.
The same measure for APFARSCDNWILGIFVFILG: 6.125 ± 0.042; for VPRFPA: “inactive”; for HSRRGGFRKYSSTLARPASD: -0.799 ± 0.49.
Turning to RVGVIFRKYWSFRYFSCKEN, the amyloid nucleation score was -0.59 ± 1.1.
As for MWSVLNHLRSDSDFSNA, the amyloid nucleation score was determined as 1.13 ± 0.61.
LHIYTKVHRSR: the amyloid nucleation score turned out to be 3.59 ± 0.13.
In turn, KSFIGWLYMDTEYHWMYQPW yielded an amyloid nucleation score of 0.27 ± 0.28.
Substance NTIMFEFICSIGITVYD yielded an amyloid nucleation score of 1.33 ± 0.21.
NLFKDTISSLHNGIETIAPF: the amyloid nucleation score is -0.82 ± 0.61.
The same measure for CRSAVRRILGFNLSRVFSWF: -0.417 ± 0.64; for EMVSLCSSRFRRMMGACLGT: 1.39 ± 0.21.
In turn, RSTERCNYTCVNWVVL gave an amyloid nucleation score of 7.748 ± 0.048.
The same measure for SETLFEYS: -1.55 ± 0.55; for DCLRCNHYTVCNMYDRFFLL: “inactive”; for HWGSVAGDFWGFVVWSRFGR: 0.234 ± 0.34.
The same measure for NWSVILYIRACTASNIEWLS: 1.52 ± 0.44.
KLIYSSYVGSFLMELRWVCD yielded an amyloid nucleation score of 1.74 ± 0.17.
Then MTWARRRSINIYDRHLRMAG, with -0.388 ± 1; and ICPRRS, with 0.474 ± 0.34.
As for YSFELGDFRMEKLIRDMVKC, the amyloid nucleation score was -0.932 ± 0.42.
In turn, CSGYSERAPRFCSDLIVCST displayed an amyloid nucleation score of 0.574 ± 0.51.
The same measure for LTYYLSYCHYRRTYLAGLLQ: -0.249 ± 0.2.
For IFSIHVVAQTINE, the amyloid nucleation score amounted to 4.64 ± 0.085.
With DKSFVSLSRFHSGRLEIRVM, the amyloid nucleation score was -0.886 ± 0.49.
With YFIVVFMLSVNKT, the amyloid nucleation score was 0.06 ± 0.54.
The same measure for YLLRNWLPGKVGCHQFLILW: 0.757 ± 0.39; for NGTLRQYDRSDYINKIGDSN: -1.02 ± 0.38.
The same measure for AWKAVY: -0.585 ± 0.63.
Then RFFVYWFVFLCRLNGCVLWT, with -0.689 ± 0.4; and LVKLEKHRLKVVNDYNSFEG, with “inactive”; and YLYGCGNMVVIWRSGRQMDI, with -1.42 ± 0.49.
As for MFSIYLLSCPLYISMNWSCR, the amyloid nucleation score stood at 0.183 ± 1.
The substance VYSPFLICI returned an amyloid nucleation score of 0.174 ± 1.
For the substance AKGLG, the amyloid nucleation score came to 1.52 ± 0.31.
Regarding VLYLLKSSSFSTGVNSRCMR, the amyloid nucleation score was -0.256 ± 1.1.
YFWQEIVAFNKVESLILELG: the amyloid nucleation score was -0.451 ± 1.
The same measure for FWSDSVVFRPDTVRLERSLG: 0.025 ± 1.1; for ARSNFLFRHNILFFVYFITS: -1.48 ± 1.1; for WQKLLIDYSSSTYDEALGT: 0.833 ± 0.8.
Turning to LCVYNPNVKYVHPCWTASGG, the amyloid nucleation score was -0.529 ± 0.44.
Then TLHKLFQMNLGRR, with -0.738 ± 0.44; and NGVPT, with -1.43 ± 1.1; and WGLGCMSQSTLHGSLISSVR, with -0.5 ± 0.44.
The same measure for DQAHRGSCDVS: 0.214 ± 0.63; for TRGKRVPPDVLSSPKRIANV: 1.12 ± 0.46.
